According to patent publication US20110117113A1, “IMMUNOGLOBULIN SINGLE VARIABLE DOMAIN DIRECTED AGAINST HUMAN CXCR4 AND OTHER CELL ASSOCIATED PROTEINS AND METHODS TO GENERATE THEM” (priority 2009, published 2011):
Values belong to the molecule of their own block, whether it stands above or below them.

Assays:
CXCR4 (N119A) [1] = target: T1, CXCR4 (N119A) (Homo sapiens, UniProt P61073, N119A); experiment: Basal inositol phosphate accumulation in HEK293T cells transiently expressing CXCR4 (N119A); format: cell-based; conditions: for functional profile on CXCR4 (N119A) (in words): ligand-induced alteration of basal inositol phosphate accumulation; for reduction of the constitutively increased basal signalling of CXCR4 (N119A): basal inositol phosphate accumulation, HEK293T cells transiently expressing CXCR4 (N119A)
T1 construct: expressed in transfected cells; host or cells: HEK293T, transient; membranes in A4, whole cells in A5
T1 sequence (P61073 whole entry N119A): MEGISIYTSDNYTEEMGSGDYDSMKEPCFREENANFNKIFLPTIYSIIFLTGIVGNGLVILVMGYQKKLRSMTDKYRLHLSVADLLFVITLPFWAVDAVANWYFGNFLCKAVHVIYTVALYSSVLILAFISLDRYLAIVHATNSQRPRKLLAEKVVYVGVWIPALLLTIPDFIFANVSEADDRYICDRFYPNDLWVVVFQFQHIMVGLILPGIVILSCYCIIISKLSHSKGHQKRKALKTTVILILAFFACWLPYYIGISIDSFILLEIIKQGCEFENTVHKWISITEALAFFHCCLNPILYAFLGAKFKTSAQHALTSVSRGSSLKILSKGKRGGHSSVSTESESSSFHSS
Description: The functional profile of monovalent Nanobodies 238D2 and 238D4 as well as their bivalent fusion products L3 and L8 on CXCR4 (N119A) were investigated by measurement of the ligand-induced alteration of the basal inositol phosphate accumulation. HEK293T cells transiently expressing CXCR4 (N119A) show a 3-8 times higher basal rate of inositol phosphate accumulation compared to wild type CXCR4 or mock (which are virtually at the same level). […] The nanobody-induced reduction of basal inositol phosphate accumulation was antagonized by the selective neutral CXCR4 antagonist plerixafor confirming that the observed […] effects are mediated via CXCR4 (N119A).

CXCR4 [2] = target: T2, CXCR4 (Homo sapiens, UniProt P61073); experiment: Competition binding, displacement of [^125I]-CXCL12 on membranes from HEK293T cells transiently expressing CXCR4; conditions: maximal displacement; membranes from HEK293T cells transiently expressing CXCR4; mean ± S.E.M.
T2 construct: expressed in transfected cells; host or cells: HEK293T, transient; membrane fraction
T2 sequence (P61073 whole entry): as the sequence (P61073 whole entry N119A) above, with A119N counted along it
Protocol: (§1) Iodine incorporation and specific activity were controlled via precipitation of the protein with trichloroacetic acid.
(§2) Competition binding assay—Periplasmic fractions were screened in a competition binding assay using membranes from HEK293T cells transiently expressing CXCR4. […] Membranes were then harvested over polyethylenimine (0.5%)-treated Whatman GF/C filter plates and washed three times with ice cold binding buffer containing 500 mM NaCl. Plates were counted by liquid scintillation.
(§3) Characterization of Nanobody binding to CXCR4—Following purification, receptor binding to characteristics for 238D2 and 238D4 were investigated on cell membranes from HEK293T cells transiently expressing CXCR4.
(§4) Data analysis and presentation—Data are presented as mean±S.E.M. from n independent experiments. Concentration response curves (E/[A] curves) were fitted to the Hill equation using an iterative, least-squares method (GraphPad Prism 4.0, GraphPad Software, San Diego, Calif.) to provide maximal inhibitory effects (Imax), half maximal effective (EC50) or inhibitory concentrations (IC50). Competition binding affinities and functional antagonist affinities (Ki) were calculated using the Cheng and Prusoff equation Ki=IC50/(1+[agonist]/EC50) (Cheng & Prusoff, 1973).

CXCR4 [3] = target: T2, CXCR4; experiment: Competition binding, displacement of [^125I]-238D2 on membranes from HEK293T cells transiently expressing CXCR4
Protocol: as §1, §2, §3, §4

CXCR4 [4] = target: T2, CXCR4; experiment: Competition binding, displacement of [^125I]-238D4 on membranes from HEK293T cells transiently expressing CXCR4
Protocol: as §1, §2, §3, §4

CXCR4 (N119A) [5] = target: T1, CXCR4 (N119A); experiment: Competition binding with [125I]-CXCL12 on constitutively active CXCR4 mutant N119A; conditions: competition with [125I]-CXCL12 (40 pM); for binding to CXCR4 (N119A) (in words): highest nanobody test concentration 2 μM
Protocol: Competition binding assay—Periplasmic fractions were screened in a competition binding assay using membranes from HEK293T cells transiently expressing CXCR4. In short, periplasmic extracts (1:10) or ligands were pre-incubated with membranes in binding buffer (50 mM HEPES (pH 7.4), 1 mM CaCl2, 5 mM MgCl2, 100 mM NaCl, 0.5% bovine serum albumin) supplemented with 0.5% BSA for 1 h at 22° C. before the addition of [^125I]-CXCL12 (40 pM) or [^125I]-238D2 (3 nM) or [^125I]-238D4 (3 nM) for additional 2 h at 22° C. […] Membranes were then harvested over polyethylenimine (0.5%)-treated Whatman GF/C filter plates and washed three times with ice cold binding buffer containing 500 mM NaCl. Plates were counted by liquid scintillation.
CXCR4—specific Nanobodies behave as neutral antagonists or inverse agonists on constitutively active mutants of CXCR4—The CXCR4—specific monovalent Nanobodies 238D2 and 238D4 as well as their bivalent fusion products L3 and L8 were investigated on the constitutively active CXCR4 mutant N119A (equivalent to N3.35A in the Ballestros-Weinstein numbering of class A GPCRs). […] Despite of the large number of CAMs for other class A GPCRs and further efforts to generate additional CAMs for CXCR4 (Berchiche et al., 2007), the N119 mutants of CXCR4 remain the only known CAMs for this receptor. […] Methods: Preparation of membranes and competition binding experiments with [125I]-CXCL12 (40 pM) were performed as described before for wild type CXCR4 (vide supra).

[6] = maximal displacement, mean ± S.E.M.

stimulation of the mutant receptor (CXCR4 (N119A) [1]; inositol phosphate accumulation, CXCR4 (N119A)): 0.4 fold over basal
Molecule: CXCL12: CXCR4 reference ligand, human CXCL12 (SDF-1) [reference compound]

[^125I]-CXCL12 Displacem. (%) (CXCR4 [2]): 94 ± 2%
[^125I]-238D2 Displacem. (%) (CXCR4 [3]; [6]): 102 ± 1%
[^125I]-238D4 Displacem. (%) (CXCR4 [4]; [6]): 99 ± 4%
binding to CXCR4 (N119A) (in words) (CXCR4 (N119A) [5]): clearly bind to the mutant receptor
Molecule: c1cc(CN2CCCNCCNCCCNCC2)ccc1CN1CCCNCCNCCCNCC1 [AMD3100, reference compound]
displacement of [^125I]-238D2 (in words) (CXCR4 [3]): affinities comparable to those obtained against [^125I]-CXCL12
displacement of [^125I]-238D4 (in words) (CXCR4 [4]): affinities comparable to those obtained against [^125I]-CXCL12
functional profile on CXCR4 (N119A) (in words) (CXCR4 (N119A) [1]): Only antagonistic but no significant inverse agonistic activities

binding to CXCR4 (N119A) (in words) (CXCR4 (N119A) [5]): able to bind to CXCR4 (N119A)
reduction of the constitutively increased basal signalling of CXCR4 (N119A) (CXCR4 (N119A) [1]): 65%
functional profile on CXCR4 (N119A) (in words) (CXCR4 (N119A) [1]): partial inverse agonists
B1: L8: bivalent fusion product 238D2-20GS-238D4, SEQ ID NO: 5 (protein)
chain: EVQLVESGGGLVQTGGSLRLSCAASGFTFSSYAMSWVRQAPGKGLEWVSGIKSSGDSTRYAGSVKGRFTISRDNAKNMLYLQMYSLKPEDTAVYYCAKSRVSRTGLYTYDNRGQGTQVTVSSGGGGSGGGGSGGGGSGGGGSEVQLMESGGGLVQAGGSLRLSCAASGRTFNNYAMGWFRRAPGKEREFVAAITRSGVRSGVSAIYGDSVKDRFTISRDNAKNTLYLQMNSLKPEDTAVYTCAASAIGSGALRRFEYDYSGQGTQVTVSS
modifications: Nanobody construct
binding affinities to CXCR4 (N119A) compared to wild type (in words) (CXCR4 (N119A) [5]): somewhat less compared to the wild type receptor

binding to CXCR4 (N119A) (in words) (CXCR4 (N119A) [5]): able to bind to CXCR4 (N119A)
reduction of the constitutively increased basal signalling of CXCR4 (N119A) (CXCR4 (N119A) [1]): 64%
functional profile on CXCR4 (N119A) (in words) (CXCR4 (N119A) [1]): partial inverse agonists
B2: L3: bivalent fusion product 238D2-15GS-238D4, SEQ ID NO: 4 (protein)
chain: EVQLVESGGGLVQTGGSLRLSCAASGFTFSSYAMSWVRQAPGKGLEWVSGIKSSGDSTRYAGSVKGRFTISRDNAKNMLYLQMYSLKPEDTAVYYCAKSRVSRTGLYTYDNRGQGTQVTVSSGGGGSGGGGSGGGGSEVQLMESGGGLVQAGGSLRLSCAASGRTFNNYAMGWFRRAPGKEREFVAAITRSGVRSGVSAIYGDSVKDRFTISRDNAKNTLYLQMNSLKPEDTAVYTCAASAIGSGALRRFEYDYSGQGTQVTVSS
modifications: Nanobody construct
binding affinities to CXCR4 (N119A) compared to wild type (in words) (CXCR4 (N119A) [5]): somewhat less compared to the wild type receptor
